Columns and labels:
[1] = system: Mouse bEnd.3 endothelial cells; experiment: Phosphatidylserine induction by hydrogen peroxide; type: cell-based
Experimental: Mouse bEnd.3 endothelial cells were seeded at an initial density of 50,000 cells/well. Twenty-fours later cells were incubated with increasing concentrations of H2O2 (from 10 μM to 500 μM) for 1 hour at 37° C. or left untreated. At the end of the incubation, cells were washed 3 times with PBS containing 0.2% gelatin and fixed with 0.25% glutaraldehyde. Identical wells were either stained with anti-PS IgM or trypsinized and evaluated for viability by the Trypan Blue exclusion test. For the anti-PS staining, after blocking with 2% gelatin for 10 min., cells were incubated with 2 μg/ml of anti-PS antibody, followed by detection with anti-mouse IgM-HRP conjugate.

[2] = system: tissue factor on the surface of HUVEC cells; experiment: FACS analysis of tissue factor expression on HUVEC; type: cell-based, human; conditions: TNFα 500 U/ml, LPS 10 μg/ml, VEGF 1 nM; 6 h
Experimental: To analyze tissue factor expression on the surface of endothelial cells, HUVEC cells were incubated with TNFα (500 U/ml), LPS (10 μg/ml) or vascular endothelial growth factor (VEGF, 1 nM) alone or in combination for 6 h at 37°. Cells were then detached and stained for surface expression of human tissue factor with a sheep-anti-human tissue factor antibody (Haemochrom, Essen, Germany) and an appropriate FITC-conjugated secondary antibody. Fluorescent cells were detected on a flow cytometer (Becton Dickinson, San Jose, Calif.).

bEnd 3 cells = experiment: Cell bound coagulation assay on stimulated bEnd 3 endothelial cells (factor Xa generation); type: cell-based, murine
Mouse endothelial cells = experiment: TNFα, cell based two stage coagulation assay
Experimental: Mouse endothelial cells were seeded in 48 well tissue culture plates and allowed to adhere overnight. Cells were stimulated with TNFα at the following concentrations: 500 U/ml 100 U/ml; 20 U/ml; 4 U/ml; 0.8 U/ml 0.16 U/ml; and with medium only.
Endothelial cells were also tested for coagulant activity in a cell based two stage coagulation assay. After incubation with TNFα, cells were washed and incubated with coagulation factor mix (0.5 μg/ml factor VIIa in a mix containing 2.8 μg/ml factor IX, 3.4 μg/ml factor X, 50 μM phospholipids in calcium buffer). The supernatant of wells was transferred into a 96 well ELISA plate. Substrate S2765 was added and Factor Xa generation measured.

[3] = system: HT29 (human colorectal carcinoma) xenograft; experiment: HT29 xenograft necrosis after tTF constructs with Factor VIIa; set-up: species or system BALB/c nu/nu mice; conditions: mouse, in vivo, iv
A20 lymphoma cells = experiment: In vitro coagulation assay on A20 cells with B21-2/10H10 capture antibody; type: cell-based, mouse; conditions: for concentration at which plasma coagulated in 50 seconds: bound via B21-2/10H10 to A20 cells; for coagulation times versus tTF219 and Factor VIIa at the same concentrations: Factor VIIa at 1 nM or greater
[4] = system: factor X to Xa conversion; experiment: Factor Xa production assay on A20 cells; type: cell-based; conditions: Factors II, VII and IX present

## OO [H2O2]
[1]; concentrations as low as 20 μM
  cells with PS detected at the cell surface: about 50%
[1]; low levels of H2O2 (lower than 100 μM), identical to untreated
  cell viability: 95%

## VEGF
[2]
  tissue factor expression on the surface of endothelial cells: upregulated

## TNFα
[2]
  tissue factor expression on the surface of endothelial cells: upregulated
bEnd 3 cells; stimulation with TNFα (500 U/ml), then incubation with labelled agent (label TNFα = medium only), 0.5 μg/ml factor VIIa
  Factor Xa generation: 0.35 nkatS2222
bEnd 3 cells; stimulation with TNFα (label TNFα = medium only), 2 μg/ml factor VII and 0.01 μg/ml factor VIIa, factor VII-only values subtracted
  Factor Xa generation due to Factor VIIa production: 1.23 nkatS2222
Mouse endothelial cells
  fold lower dose for coagulant effect than for VCAM-1 upregulation: 125 fold
Mouse endothelial cells; coagulation assay
  TNFα at which an increase in comparison to the negative control could be detected: 0.16 U/ml

B1: Factor VIIa: recombinant human Factor VIIa (protein)
chain: ANAFLEELRPGSLERECKEEQCSFEEAREIFKDAERTKLFWISYSDGDQCASSPCQNGGSCKDQLQSYICFCLPAFEGRNCETHKDDQLICVNENGGCEQYCSDHTGTKRSCRCHEGYSLLADGVSCTPTVEYPCGKIPILEKRNASKPQGRIVGGKVCPKGECPWQVLLLVNGAQLCGGTLINTIWVVSAAHCFDKIKNWRNLIAVLGEHDLSEHDGDEQSRRVAQVIIPSTYVPGTTNHDIALLRLHQPVVLTDHVVPLCLPERTFSERTLAFVRFSLVSGWGQLLDRGATALELMVLNVPRLMTQDCLQQSRKVGDSPNITEYMFCAGYSDGSKDSCKGDSGGPHATHYRGTWYLTGIVSWGQGCATVGHFGVYTRVSQYIEWLQKLMRSEPRPGVLLRAPFP
[3]
  necrosis, average area as percentage of total tumor area: some necrosis

B2: H6-tTF220-cys-C′: tTF with Ile-Cys after amino acid 219, (His)6 tag (protein)
chain: HHHHHHAMALVPRGSGTTNTVAAYNLTWKSTNFKTILEWEPKPVNQVYTVQISTKSGDWKSKCFYTTDTECDLTDEIVKDVKQTYLARVFSYPAGNVESTGSAGEPLYENSPEFTPYLETNLGQPTIQSFEQVGTKVNVTVEDERTLVRRNNTFLSLRDVFGKDLIYTLYYWKSSSSGKKTAKTNTNEFLIDVDKGENYCFSVQAVIPSRTVNRKSTDSPVECMGQEKGEFRE
A20 lymphoma cells
  concentration at which plasma coagulated in 50 seconds: 0.5 nM

B3: H6-tTF221-cys-C′: tTF with Ile-Phe-Cys after amino acid 219, (His)6 tag (protein)
chain: HHHHHHAMALVPRGSGTTNTVAAYNLTWKSTNFKTILEWEPKPVNQVYTVQISTKSGDWKSKCFYTTDTECDLTDEIVKDVKQTYLARVFSYPAGNVESTGSAGEPLYENSPEFTPYLETNLGQPTIQSFEQVGTKVNVTVEDERTLVRRNNTFLSLRDVFGKDLIYTLYYWKSSSSGKKTAKTNTNEFLIDVDKGENYCFSVQAVIPSRTVNRKSTDSPVECMGQEKGEFRE
A20 lymphoma cells
  concentration at which plasma coagulated in 50 seconds: 0.5 nM
A20 lymphoma cells; listed as H6-tTF221-cys-C′ monomer
  concentration at which plasma coagulated in 50 seconds: 1 nM

B4: H6-tTF221-cys-C′ dimer: chemically conjugated disulfide dimer of H6-tTF221-cys-C′ (protein)
chain: HHHHHHAMALVPRGSGTTNTVAAYNLTWKSTNFKTILEWEPKPVNQVYTVQISTKSGDWKSKCFYTTDTECDLTDEIVKDVKQTYLARVFSYPAGNVESTGSAGEPLYENSPEFTPYLETNLGQPTIQSFEQVGTKVNVTVEDERTLVRRNNTFLSLRDVFGKDLIYTLYYWKSSSSGKKTAKTNTNEFLIDVDKGENYCFSVQAVIPSRTVNRKSTDSPVECMGQEKGEFRE
A20 lymphoma cells
  fold less active at inducing coagulation of plasma than tTF219 / unconjugated or monomeric form: 4 fold

B5: H6-tTF219-cys-C′: tTF219 with (His)6 tag and a Cys after amino acid 219 (protein)
chain: HHHHHHAMALVPRGSGTTNTVAAYNLTWKSTNFKTILEWEPKPVNQVYTVQISTKSGDWKSKCFYTTDTECDLTDEIVKVKQTYLARVFSYPAGNVESTGSAGEPLYENSPEFTPYLETNLGQPTIQSFEQVGTKVNVTVEDRTLVRRNNTFLSLRDVFGKDLIYTLYYWKSSSSGKKTAKTNTNEFLIDVDKGENYCFSVQAVIPSRTVNRKSTDSPVECMGQEKGEFREC
A20 lymphoma cells
  concentration at which plasma coagulated in 50 seconds: 3 nM

B6: IgG-H6-N′-cys-tTF219: one molecule of IgG linked via SMPT to one or two molecules of H6-N′-cys-tTF219 (conjugate)
chain: HHHHHHAMALVPRGSCGTTNTVAAYNLTWKSTNFKTILEWEPKPVNQVYTVQISTKSGDWKSKCFYTTDTECDLTDEIVKDVKQTYLARVFSYPAGNVESTGSAGEPLYENSPEFTPYLETNLGQPTIQSFEQVGTKVNVTVEDERTLVRRNNTFLSLRDVFGKDLIYTLYYWKSSSSGKKTAKTNTNEFLIDVDKGENYCFSVQAVIPSRTVNRKSTDSPVECMGQEKGEFRE
modifications: left off: large carriers
A20 lymphoma cells
  fold less active at inducing coagulation of plasma than tTF219 / unconjugated or monomeric form: 5 fold
  concentration at which plasma coagulated in 50 seconds: 5 nM
[4]
  activity at inducing Xa formation relative to H6-N′-cys-tTF219 (fold less active): 2 fold

B7: Fab′-H6-N′-cys-tTF219: Fab′ fragment disulfide-linked to H6-N′-cys-tTF219 (conjugate)
chain: HHHHHHAMALVPRGSCGTTNTVAAYNLTWKSTNFKTILEWEPKPVNQVYTVQISTKSGDWKSKCFYTTDTECDLTDEIVKDVKQTYLARVFSYPAGNVESTGSAGEPLYENSPEFTPYLETNLGQPTIQSFEQVGTKVNVTVEDERTLVRRNNTFLSLRDVFGKDLIYTLYYWKSSSSGKKTAKTNTNEFLIDVDKGENYCFSVQAVIPSRTVNRKSTDSPVECMGQEKGEFRE
modifications: left off: another chain or arm of the molecule; large carriers
[4]
  activity at inducing Xa formation relative to H6-N′-cys-tTF219 (fold less active): as active as

B8: tTF219 (G164A): tTF219 with amino acid 164 (Gly) replaced by Ala (protein)
chain: GSGTTNTVAAYNLTWKSTNFKTILEWEPKPVNQVYTVQISTKSGDWKSKCFYTTDTECDLTDEIVKDVKQTYLARVFSYPAGNVESTGSAGEPLYENSPEFTPYLETNLGQPTIQSFEQVGTKVNVTVEDERTLVRRNNTFLSLRDVFGKDLIYTLYYWKSSSSAKKTAKTNTNEFLIDVDKGENYCFSVQAVIPSRTVNRKSTDSPVECMGQEKGEFRE
A20 lymphoma cells
  coagulation times versus tTF219 and Factor VIIa at the same concentrations: only marginally slower coagulation times
[3]
  necrosis, average area as percentage of total tumor area: some necrosis

B9: tTF219 (W158R) (protein)
chain: GSGTTNTVAAYNLTWKSTNFKTILEWEPKPVNQVYTVQISTKSGDWKSKCFYTTDTECDLTDEIVKDVKQTYLARVFSYPAGNVESTGSAGEPLYENSPEFTPYLETNLGQPTIQSFEQVGTKVNVTVEDERTLVRRNNTFLSLRDVFGKDLIYTLYYRKSSSSGKKTAKTNTNEFLIDVDKGENYCFSVQAVIPSRTVNRKSTDSPVECMGQEKGEFRE
A20 lymphoma cells
  coagulation times versus tTF219 and Factor VIIa at the same concentrations: only marginally slower coagulation times

Reference: patent US20030139374A1 (University of Texas, published 2003)
